For one substance, IC50, Kd and Ki results are on record in patent US20140294844A1.

The assay has as its target huPrP23-231 (human) (UniProt P04156).

Regarding ICSM-35 (antibody), the half-inhibitory concentration (IC50) came out at 10.4 nM, the Kd is 10 nM and the Ki turned out to be 20 nM.
